From patent publication US20140127211A1 (Pfizer, published 2014)

T1: human Notch3 NRR recombinant protein (Notch3 NRR_Avi_His tag) (human)
T1 construct: Purified from CHO-PACE cells; the entry includes the C-terminal Avi and His6 tag
T1 chain: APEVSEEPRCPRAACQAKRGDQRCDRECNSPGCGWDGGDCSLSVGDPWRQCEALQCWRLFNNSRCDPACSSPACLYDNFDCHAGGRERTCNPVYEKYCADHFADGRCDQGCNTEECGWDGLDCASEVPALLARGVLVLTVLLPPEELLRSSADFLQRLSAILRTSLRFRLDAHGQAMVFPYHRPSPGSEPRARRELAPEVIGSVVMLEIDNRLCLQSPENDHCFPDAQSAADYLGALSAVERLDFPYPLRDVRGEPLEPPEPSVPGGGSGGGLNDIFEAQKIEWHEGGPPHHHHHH

B1: hu28-vc6780 (Notch3-28-v1010-hG1-(C)_mcValCitPABC-#112) (antibody, human IgG1, kappa, V domains shown)
VH: EVQLVESGGGLVQPGGSLRLSCAASGFTFRDYGMTWVRQAPGKGLEWVAYISSGSNYIYYAEAVKGRFTISRDNAKNSLYLQMNSLRAEDTAVYYCARRGPFVLDAWGQGTLVTVSS
VL: DIQMTQSPSSLSASVGDRVTITCKASQSINRYLHWYQQKPGKAPKLLIYNANGLQTGVPSRFSGSGSGTDFTLTISSLQPEDFATYYCLQHNTWPDTFGGGTKVEIKR
modifications: vc6780 linker-payload on cysteine residues after partial reduction; sites not specified
notes: Antibody-drug conjugate of hu28
B2: hu75-vc6780 (Notch3-75-v1913-hG1-(C)_mcValCitPABC-#112) (antibody, human IgG1, kappa, V domains shown)
VH: EVQLVESGGGLVQPGGSLRLSCAASGYAFTDYWMTWVRQAPGKGLEWVAEISPNSGGTNFNEKFKGRFTISVDNAKNSLYLQMNSLRAEDTAVYYCARGEIRYNWFAYWGQGTLVTVSS
VL: DIQMTQSPSSLSASVGDRVTITCKASQNVGNNIAWYQQKPGKAPKLLIYYASNRYTGVPSRFSGSGYGTDFTLTISSLQPEDFATYYCQRLYNSPFTFGGGTKVEIKR
modifications: vc6780 linker-payload on cysteine residues after partial reduction; sites not specified
notes: Antibody-drug conjugate of hu75
B3: hu75-vc0101 (Notch3-75-v1913-hG1-(C)_mcValCitPABC-#54) (antibody, human IgG1, kappa, V domains shown)
VH: B2 VH
VL: B2 VL
modifications: vc0101 linker-payload on cysteine residues after partial reduction; sites not specified
notes: as for B2
B4: hu75 (humanized r75 variant VH1.9/VL1.3) (antibody, human IgG1, kappa, V domains shown)
VH: B2 VH
VL: B2 VL
notes: Human IgG1/kappa; also called hu75 VH1.9/VL1.3; hu75 VH1.9/V1.3

Assays:
[1] = molecular target: T2, full-length human Notch3 expressed on the cell surface (human, UniProt Q9UM47 40-2321); test: cell-based ELISA, HCC2429 cells; SD 0.034
T2 construct: whole, on cells; also called hNotch3; U2OS/hNotch3
T2 sequence (Q9UM47 40-2321): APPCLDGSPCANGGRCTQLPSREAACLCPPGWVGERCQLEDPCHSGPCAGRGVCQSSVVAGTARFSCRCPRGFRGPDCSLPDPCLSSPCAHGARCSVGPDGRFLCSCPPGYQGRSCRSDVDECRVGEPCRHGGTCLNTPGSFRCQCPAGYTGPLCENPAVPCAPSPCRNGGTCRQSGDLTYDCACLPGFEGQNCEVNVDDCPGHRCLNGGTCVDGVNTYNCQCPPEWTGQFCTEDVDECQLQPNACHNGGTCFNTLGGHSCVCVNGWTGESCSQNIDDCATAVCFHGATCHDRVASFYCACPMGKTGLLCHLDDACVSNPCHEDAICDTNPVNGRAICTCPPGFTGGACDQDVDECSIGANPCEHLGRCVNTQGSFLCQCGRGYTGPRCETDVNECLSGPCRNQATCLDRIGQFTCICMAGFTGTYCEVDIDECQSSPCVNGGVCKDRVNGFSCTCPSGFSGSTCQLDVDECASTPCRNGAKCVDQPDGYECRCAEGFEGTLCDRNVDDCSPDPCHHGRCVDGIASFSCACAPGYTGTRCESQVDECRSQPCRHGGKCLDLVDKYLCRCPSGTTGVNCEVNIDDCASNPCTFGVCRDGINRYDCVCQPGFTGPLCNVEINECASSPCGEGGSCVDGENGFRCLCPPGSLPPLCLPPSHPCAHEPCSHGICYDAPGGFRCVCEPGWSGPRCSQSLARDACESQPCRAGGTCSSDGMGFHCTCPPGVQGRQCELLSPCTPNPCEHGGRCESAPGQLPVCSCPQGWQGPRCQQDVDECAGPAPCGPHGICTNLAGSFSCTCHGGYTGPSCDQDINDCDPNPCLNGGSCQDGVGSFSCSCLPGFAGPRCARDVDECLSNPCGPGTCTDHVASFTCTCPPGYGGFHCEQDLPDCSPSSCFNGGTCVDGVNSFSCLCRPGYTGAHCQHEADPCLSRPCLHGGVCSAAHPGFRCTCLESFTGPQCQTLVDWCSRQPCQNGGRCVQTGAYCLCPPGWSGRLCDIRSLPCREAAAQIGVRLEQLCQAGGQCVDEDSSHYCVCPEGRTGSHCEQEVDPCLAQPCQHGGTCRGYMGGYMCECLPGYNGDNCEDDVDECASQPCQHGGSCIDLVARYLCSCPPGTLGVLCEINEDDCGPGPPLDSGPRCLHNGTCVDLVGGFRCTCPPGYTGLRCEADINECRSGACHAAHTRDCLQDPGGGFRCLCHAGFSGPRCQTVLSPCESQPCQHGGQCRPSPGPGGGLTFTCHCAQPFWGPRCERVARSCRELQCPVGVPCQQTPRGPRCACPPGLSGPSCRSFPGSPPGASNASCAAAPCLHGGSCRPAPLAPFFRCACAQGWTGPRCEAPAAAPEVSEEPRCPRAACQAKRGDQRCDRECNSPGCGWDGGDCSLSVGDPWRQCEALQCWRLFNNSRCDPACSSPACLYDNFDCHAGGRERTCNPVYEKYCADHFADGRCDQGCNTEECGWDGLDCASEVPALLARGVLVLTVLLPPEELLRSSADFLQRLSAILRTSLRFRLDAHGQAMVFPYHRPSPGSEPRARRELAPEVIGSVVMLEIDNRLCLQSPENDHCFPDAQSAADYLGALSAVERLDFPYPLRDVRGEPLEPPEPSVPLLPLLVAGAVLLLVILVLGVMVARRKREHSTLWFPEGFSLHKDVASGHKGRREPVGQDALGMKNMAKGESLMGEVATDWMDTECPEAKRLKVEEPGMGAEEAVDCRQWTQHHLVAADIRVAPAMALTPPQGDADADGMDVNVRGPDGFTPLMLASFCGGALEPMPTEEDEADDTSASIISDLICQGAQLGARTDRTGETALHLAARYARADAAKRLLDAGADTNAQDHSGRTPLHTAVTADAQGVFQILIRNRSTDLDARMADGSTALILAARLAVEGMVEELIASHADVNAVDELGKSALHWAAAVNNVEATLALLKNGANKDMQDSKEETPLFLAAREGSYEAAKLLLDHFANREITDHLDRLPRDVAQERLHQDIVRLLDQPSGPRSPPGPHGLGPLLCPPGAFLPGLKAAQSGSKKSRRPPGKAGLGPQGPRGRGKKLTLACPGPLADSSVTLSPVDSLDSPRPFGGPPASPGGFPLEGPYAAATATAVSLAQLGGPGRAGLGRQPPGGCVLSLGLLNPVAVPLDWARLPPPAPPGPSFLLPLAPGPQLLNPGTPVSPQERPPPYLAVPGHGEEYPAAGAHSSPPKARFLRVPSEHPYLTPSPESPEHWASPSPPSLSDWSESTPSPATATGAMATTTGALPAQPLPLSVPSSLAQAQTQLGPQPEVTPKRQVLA
Procedure: (§1) On the day of the ELISA, culture media was removed from wells and serially diluted (1:3 in DPBS with calcium chloride and magnesium chloride (Ca/Mg) and 1% BSA) antibody and ADC solutions were applied to the plate. Plates were incubated at room temperature for 2 hours before washed with DPBS with Ca/Mg and 1% BSA. HRP-conjugated secondary antibody was then applied and incubated with cells for 1 hour. Plates were washed with DPBS with Ca/Mg and 1% BSA before being developed with Pico-Chemiluminescent developing kit (Thermal Scientific), and chemiluminescence measurements were performed per manufacturer's instructions. Data plotting and analyses were performed with Microsoft Excel and Graphpad-Prism software.

[2] = molecular target: T2, full-length human Notch3 expressed on …; test: cell-based or functional assay
[3] = molecular target: T2, full-length human Notch3 expressed on …; test: cell-based or functional assay; remark: listed apart in the source
[4] = molecular target: T2, full-length human Notch3 expressed on …; test: cell-based ELISA, MDA-MB-468 cells; SD 0.046
Procedure: as §1

[5] = molecular target: T2, full-length human Notch3 expressed on …; test: cell-based ELISA, U2OS/hNotch3 cells; SD 0.008
Procedure: as §1

[6] = molecular target: T2, full-length human Notch3 expressed on …; test: cell-based ELISA, MDA-MB-468 cells; SD 0.062
Procedure: as §1

[7] = molecular target: T2, full-length human Notch3 expressed on …; test: cell-based ELISA, U2OS/hNotch3 cells; SD 0.041
Procedure: as §1

[8] = molecular target: T2, full-length human Notch3 expressed on …; test: cell-based ELISA, HCC2429 cells; SD 0.063
Procedure: as §1

[9] = molecular target: T2, full-length human Notch3 expressed on …; test: cell-based ELISA, HCC2429 cells; SD 0.115
Procedure: as §1

[10] = molecular target: T2, full-length human Notch3 expressed on …; test: cell-based ELISA, MDA-MB-468 cells; SD 0.167
Procedure: as §1

[11] = molecular target: T2, full-length human Notch3 expressed on …; test: cell-based ELISA, U2OS/hNotch3 cells; SD 0.057
Procedure: as §1

[12] = molecular target: T2, full-length human Notch3 expressed on …; test: competition ELISA on U2OS/hNotch3 cells; competitor 0.8 nM biotinylated ch75
Procedure: 96 well cell culture plates were seeded with U2OS/hNotch3 cells (cell culture plate, Co-star). […] After incubation for 2 hours, the plates were washed, as described above, and HRP-conjugated streptavidin (Southern Biotech) diluted 1:5000 in blocking buffer was applied. After incubation with streptavidin for 30 minutes, the plates were washed again before being developed with TMB solution for 10 minutes. […] Data plotting and analyses were performed with Microsoft Excel and Graphpad-Prism software.

[13] = molecular target: T2, full-length human Notch3 expressed on …; test: cell-based ELISA, HCC2429 cells; SD 0.053
Procedure: as §1

[14] = molecular target: T1, human Notch3 NRR recombinant protein …; test: SPR (Biacore T100), antibody captured on anti-human IgG-Fc, Notch3 NRR as analyte, 1:1 Langmuir fit
Procedure: The kinetic constants of the anti-Notch3 NRR interactions were determined by surface plasmon resonance (Biacore® T100, Biacore Inc., Piscataway, N.J.). Flow cells of a CM5 chip were immobilized with approximately 10,000 response units (RU) of anti-human IgG-Fc (Biacore®) in 10 mM Glycine, pH 5.0 at 10 μl/min for 600 seconds. […] Association of four concentrations of human Notch3 NRR recombinant protein (from 3.7-100 nM) and a zero concentration (running buffer) at 100 μl/min were recorded for 3 minutes in TBS with 1 mM CaCl₂. Dissociation of the complexes was measured for 10 minutes. The surface of the chip was regenerated by injecting 3M MgCl₂ with 3 mM EGTA for 60 seconds at 10 μl/min. Curves obtained after subtraction of the reference and buffer signals were fitted to a 1:1 Langmuir binding model with Biacore® T100 Evaluation Software (Biacore®).

[15] = molecular target: T2, full-length human Notch3 expressed on …; test: cell-based ELISA, MDA-MB-468 cells; SD 0.176
Procedure: as §1

[16] = molecular target: T2, full-length human Notch3 expressed on …; test: cell-based ELISA, U2OS/hNotch3 cells
Procedure: U-2 OS cells stably over-expressing human or mouse full length Notch3 protein on cell surface (hereinafter U2OS/hNotch3 and U2OS/mNotch3, respectively) were plated at 50,000 cells/well in 96 well plates (white opaque, BD/VWR) the day before ELISA assay. On the day of the ELISA, culture media was removed from wells and serially diluted (1:3 in blocking buffer) antibody solutions were applied to the plate. Plates were incubated at room temperature for 2 hours before being washed with PBS-Mg/Ca. HRP-conjugated secondary antibody was then applied and incubated with cells for 1 hour as described above for recombinant protein ELISA. Plates were washed with PBS-Mg/Ca before being developed with Pico-Chemiluminescent developing kit (Thermal Scientific), and chemiluminescence measurements were performed per manufacturer's instructions. Data plotting and analyses were performed with Microsoft Excel and Graphpad-Prism software.

[17] = molecular target: T2, full-length human Notch3 expressed on …; test: cell-based ELISA, U2OS/hNotch3 cells; SD 0.160
Procedure: as §1

Binder	IC50 of cytotoxicity, MDA-MB-468/hNotch3 cells, control siRNA [2] [ng Ab/mL]	IC50 of cytotoxicity (MTS viability), HCC2429 cells, repeat 1 [3] [ng Ab/mL]	IC50 of cytotoxicity (MTS viability), HCC2429 cells, repeat 2 [3] [ng Ab/mL]	IC50 of cytotoxicity (MTS viability), MDA-MB-468/hNotch3 cells, repeat 1 [3] [ng Ab/mL]	IC50 of cytotoxicity (MTS viability), MDA-MB-468/hNotch3 cells, repeat 2 [3] [ng Ab/mL]	IC50 of cytotoxicity (MTS viability), OVCAR3 cells [3] [ng Ab/mL]	IC50 of cytotoxicity, MDA-MB-468/hNotch3 cells, Notch3 siRNA (reduced Notch3 expression) [2] [ng Ab/mL]	other results
B1	2	148	2050	1.3	3	17	–	EC50 [1]: 0.154 nM; EC50 [4]: 0.242 nM; EC50 [5]: 0.236 nM
B2	17	214	630	26	25	254	7980	EC50 [6]: 1.8 nM; EC50 [7]: 0.723 nM; EC50 [8]: 0.343 nM
B3	29	611	3300	37	36	515	3190	IC50 of cytotoxicity (MTS viability), MDA-MB-468 cells [3]: 7000 ng Ab/mL; IC50 of cytotoxicity (MTS viability), U2OS/hNotch3 cells [3]: 523 ng Ab/mL; EC50 [9]: 0.427 nM; EC50 [10]: 2.02 nM; EC50 [11]: 0.798 nM
B4	–	–	–	–	–	–	–	EC50 [12]: 1.7 nM; EC50 [13]: 0.335 nM; Kd [14]: 9.76 nM; EC50 [15]: 1.28 nM; EC50 [16]: 0.22 nM; EC50 [17]: 0.585 nM
